# Experimental data: publication PMC11046469, “Leveraging a Phage-Encoded Noncanonical Amino Acid: A Novel Pathway to Potent and Selective Epigenetic Reader Protein Inhibitors” (ACS Central Science, 2024)
# Where a SMILES comes first, the peptide text is derived from it. The star is where a group is joined. Butyryl = CCCC(=O)*
# Target: T1, ENL YEATS domain (His-ENL YEATS) (Homo sapiens, UniProt Q03111)
# T1 construct: (aa 1−148) was cloned in pET19b; made in house; host or cells: E. coli BL21(DE3pLysS)
# T1 sequence (Q03111 1-148): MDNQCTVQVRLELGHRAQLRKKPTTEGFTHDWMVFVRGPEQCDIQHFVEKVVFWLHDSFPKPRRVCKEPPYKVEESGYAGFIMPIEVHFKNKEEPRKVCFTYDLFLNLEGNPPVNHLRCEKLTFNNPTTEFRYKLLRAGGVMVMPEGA
# Assay: AlphaScreen inhibition of ENL YEATS binding to biotinylated H3K27cr peptide
# Settings: mean ± SD, n = 3
# Description: To test the inhibition potency of the two selected peptides for the ENL YEATS domain, ENL-S1 and ENL-S2 were chemically synthesized through solid-phase peptide synthesis (SPPS) and evaluated by an AlphaScreen assay. In this assay, a biotinylated H3K27cr peptide and a 6xHis-tagged ENL YEATS domain (His-ENL YEATS) were immobilized on PerkinElmer streptavidin donor and nickel-chelating (Ni-NTA) acceptor beads, respectively. The use of a His-ENL YEATS instead of the original AviSUMO-ENL YEATS construct in the assay prevents potential false positive results derived from ligands which bind to the SUMO protein but not to the ENL YEATS domain. […] We then assessed the binding affinity of two ligands for the ENL YEATS domain using biolayer interferometry (BLI). Briefly, His-ENL was immobilized onto Ni-NTA functionalized biosensors to measure the binding kinetics of target peptides at different concentrations. […] As a small peptide directly selected from a phage display library, this level of high potency was unexpected. […] However, shorter-than-10-mer linear peptides with nanomolar binding potency have rarely been directly selected from phage display libraries. One example was S2P03, a 7-mer peptide that has a KD value as 49 ± 9 nM to bind to SIRT2.[10] This peptide contained BuK and was identified also from a BuK-containing phage display library using the active site-directed ligand selection technique. Taken together, the two examples confirmed that utilizing phage display libraries incorporated with a ncAA serving as a ligand for a protein target for active site-directed ligand selection is a successful method for identifying ultrahigh potency ligands for epigenetic proteins including both enzymes and readers. For ENL-S1 and ENL-S2, their determined kon and koff values were 6.23 ± 0.07 × 10^4 M^–1 s^–1, […] and […], 5.54 ± 0.02 × 10^–3 s^–1, respectively. Compared to ENL-S2, ENL-S1 has faster binding to the ENL YEATS domain and slower release from it, indicating its potential long-term action on the ENL YEATS inhibition. […]
# Characterization of Selected Peptide Inhibitors
# AlphaScreen Assay to Validate ENL Inhibitors:
# His-ENL, His-AF9 (aa 1-149, EpiCypher), and biotinylated H3K27cr (aa 15-33, EpiCypher) were used to assay the synthesized inhibitors. The lyophilized peptide inhibitors were dissolved in DMF […]
# and serially diluted into assay buffer (50 mM HEPES, 100 mM NaCl, 0.1% BSA, 0.05% CHAPS, pH 7.4) and incubated in the presence of 120 nM His-tagged protein at 37 °C for 30 minutes. 12.5 μL of biotinylated H3K27cr (400 nM) was aliquoted into a light gray 384-well Alphaplate (Perkin Elmer) and incubated at 37 °C. 12.5 μL of the inhibitor/protein solution was added to the H3K27cr solution, and incubated for 30 minutes at 37 °C. 25 μL of AlphaScreen histidine (nickel chelate) detection beads (Perkin Elmer) was added at 20 μg/mL each bead (streptavidin donor beads and nickel chelate acceptor beads), and the plate was incubated at 37 °C for 30 minutes. The plate was cooled to room temperature for 10 minutes, and then the beads were excited at 680 nm and the luminescence at 615 nm was read. […]
# Biolayer […]
# interferometry assays were performed in 96 well plates (GreinerBio-One, polypropylene, flat-bottom) using an Octet Red96 System (Sartorius). Wells were filled with 200 μL of assay buffer, blocking buffer (assay buffer + 0.1% BSA), protein solution, peptide solution, regeneration solution, and reload solution. For immobilization, His-tagged proteins were immobilized onto Ni-NTA sensors at 20 for 600 s. Sensors were then dipped into blocking buffer for 180 s, assay […] buffer for 300 s, peptide solution for 300 s, and back to assay buffer for 300 s. If multiple samples were tested, Ni-NTA sensors can be reconditioned in regeneration (10 mM glycine, pH 1.7) solution followed by reload solution (10 mM NiCl2) for 30 and 60 s, respectively. Measurements […]
row,Molecule,IC50 [µM]
1,CCCC(=O)NCCCC[C@H](NC(=O)[C@H](Cc1ccc(O)cc1)NC(=O)[C@H](CS)NC(=O)[C@H](Cc1ccc(O)cc1)NC(=O)[C@H](C)NC(=O)[C@H](CC(=O)O)NC(=O)[C@@H](N)Cc1ccc(O)cc1)C(N)=O [ENLS1A3] (H-YDAYCYK(Butyryl)-NH2; N-terminus assumed),> 5
2,CCCC(=O)NCCCC[C@H](NC(=O)[C@H](Cc1ccc(O)cc1)NC(=O)[C@H](C)NC(=O)[C@H](Cc1ccc(O)cc1)NC(=O)[C@@H](NC(=O)[C@H](CC(=O)O)NC(=O)[C@@H](N)Cc1ccc(O)cc1)C(C)C)C(N)=O [ENL-S1A5] (H-YDVYAYK(Butyryl)-NH2; N-terminus assumed),> 2

# Target: T2, ENL YEATS domain (AviSUMO-ENL YEATS) (Homo sapiens, UniProt Q03111)
# T2 construct: encoding ENL YEATS (aa 1−148) was cloned in pET28a-; made in house; host or cells: E. coli BL21(DE3pLysS), co-expressed with BirA (pBirAcm)
# T2 sequence (Q03111 1-148): T1 sequence (Q03111 1-148)
# Assay: Phage panning of BuK-containing 7-mer library against AviSUMO-ENL YEATS with Illumina NGS abundance
# Settings: sheet ENLR3: round 3 of panning against ENL YEATS; TAG = amber codon (BuK); 7-mer library positions V1-V7
# How it was run: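 Phage displaying BuK-containing amber-obligate 7-mer peptides, made with 5 mM BuK, was panned against biotinylated AviSUMO-ENL YEATS on streptavidin beads with washes of rising stringency. Rounds 1 and 3 were sequenced by Illumina NGS, and sequences with mismatches were filtered out before copy-number abundance was counted.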
Molecule,n (number of NGS reads of the unique amino acid sequence),percent (share of sequence reads) [%]
DLVYCYTAG,1,0.0009106
NCPTAGFNL,1,0.0009106
SVIYCYTAG,9,0.008196
YHVYCYTAG,2,0.001821
WWIIETAGR,6,0.005464
QCGPRTAGN,3,0.002732
IHVYCTAGV,1,0.0009106
TAGCGPRTAGD,3,0.002732
HLTLFTAGV,4,0.003642
CWVCLPH,1,0.0009106
YDLYCYTAG,3,0.002732
YDVYCYTAG,60611,55.1932
SCVVFTAGI,2,0.001821
YDVYCYY,26,0.02368
SCPPRTAGD,10,0.009106
CWVCTAGPH,74,0.06739
QCGPWTAGD,4,0.003642
WWIIEKG,2,0.001821
CTAGGGSLF,1,0.0009106
KCGPRTAGD,9,0.008196
HYVLFTAGW,1,0.0009106
CWGFEKTAG,1,0.0009106
HLTLFTAGD,4,0.003642
TAGTVTFWY,3,0.002732

Molecule,n (number of NGS reads of the unique amino acid sequence),percent (share of sequence reads) [%]
YDVYWYTAG,3,0.002732
QCGPRTAGY,10,0.009106
YDVYCHTAG,13,0.01184
YDVYCFTAG,2,0.001821
RTVYCYTAG,142,0.1293
QCGPRYD,11,0.01002
YYVYCYTAG,38,0.0346
WQDTTAGTY,2,0.001821
QCCPRTAGD,10,0.009106
QCGLRTAGD,4,0.003642
YDVCCYTAG,6,0.005464
FEISEWTAG,2,0.001821
LWIIETAGG,26,0.02368
GRAVDTAGG,1,0.0009106
IQTAGITAS,1,0.0009106
YVVYCYTAG,4,0.003642
HYVLFYG,1,0.0009106
LCGPRTAGD,1,0.0009106
IMCYPFTAG,28,0.0255
SWIIETAGG,5,0.004553
SMHACTAGT,2,0.001821
HLTLFTAGG,2802,2.552
WWIIDTAGG,29,0.02641
YNVYCYTAG,10,0.009106

# Same assay, conditions: sheet ENLR3: round 3 of selection against ENL YEATS; TAG = amber codon (BuK)
Molecule,n (number of NGS reads of the 7-mer sequence V1-V7),percent (share of NGS reads of the 7-mer sequence V1-V7) [%]
VWVSTAGMT,1,0.0009106
NLTLFTAGG,1,0.0009106
YDVYCSTAG,1,0.0009106
WWINETAGG,1,0.0009106
TAGGSWVPI,1,0.0009106
SLYITFTAG,1,0.0009106
YLYVTAGAC,1,0.0009106
TAGDVYCYTAG,1,0.0009106
